For series [1], the system named is T1, slr-2 (Y59A8B.13) (Caenorhabditis elegans).
T1 sequence: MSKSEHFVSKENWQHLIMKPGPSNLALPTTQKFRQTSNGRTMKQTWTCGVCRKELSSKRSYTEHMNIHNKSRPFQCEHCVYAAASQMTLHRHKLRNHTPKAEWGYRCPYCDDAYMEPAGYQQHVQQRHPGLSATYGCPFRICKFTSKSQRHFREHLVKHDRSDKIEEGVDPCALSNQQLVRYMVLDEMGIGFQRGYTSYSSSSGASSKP

The target of series [2] is T2, nhr-5 (Y73F8A.21) (Caenorhabditis elegans) (UniProt Q9NA51).
T2 sequence: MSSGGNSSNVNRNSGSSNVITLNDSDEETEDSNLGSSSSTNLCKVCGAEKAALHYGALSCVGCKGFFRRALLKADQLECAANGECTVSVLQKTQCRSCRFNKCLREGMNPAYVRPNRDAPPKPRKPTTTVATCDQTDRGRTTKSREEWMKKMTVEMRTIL

Series [3] concerns the target T3, mnm-2 (C10A4.8) (Caenorhabditis elegans) (UniProt Q17895).
T3 sequence: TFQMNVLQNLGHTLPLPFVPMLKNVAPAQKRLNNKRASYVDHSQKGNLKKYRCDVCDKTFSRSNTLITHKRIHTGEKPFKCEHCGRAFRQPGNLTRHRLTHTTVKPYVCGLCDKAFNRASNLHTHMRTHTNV

The target in series [4] is T4, let-381 (F26B1.7) (Caenorhabditis elegans) (UniProt P91278).
T4 sequence: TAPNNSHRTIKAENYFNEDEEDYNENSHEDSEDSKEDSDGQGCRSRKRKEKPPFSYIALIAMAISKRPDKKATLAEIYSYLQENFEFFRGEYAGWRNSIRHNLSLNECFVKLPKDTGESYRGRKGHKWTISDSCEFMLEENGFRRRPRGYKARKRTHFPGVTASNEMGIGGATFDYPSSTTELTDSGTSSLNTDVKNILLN

For series [5], the target named is T5, fkh-9 (K03C7.2) (Caenorhabditis elegans) (UniProt Q21187).
T5 sequence: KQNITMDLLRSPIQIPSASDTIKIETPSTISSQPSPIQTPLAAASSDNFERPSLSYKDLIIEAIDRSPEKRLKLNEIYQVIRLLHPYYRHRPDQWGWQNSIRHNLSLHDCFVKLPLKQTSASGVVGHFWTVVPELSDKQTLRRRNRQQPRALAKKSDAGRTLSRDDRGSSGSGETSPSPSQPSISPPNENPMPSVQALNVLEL

Series [6] addresses T6, daf-12 (F11A1.3) (Caenorhabditis elegans) (UniProt G5EFF5).
T6 sequence: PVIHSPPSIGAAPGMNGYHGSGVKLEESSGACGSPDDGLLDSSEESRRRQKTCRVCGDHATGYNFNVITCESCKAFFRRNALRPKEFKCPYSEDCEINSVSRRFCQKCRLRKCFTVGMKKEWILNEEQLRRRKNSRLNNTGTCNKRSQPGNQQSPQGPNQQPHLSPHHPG

The target in series [7] is ZC328.2 (ZC328.2) (Caenorhabditis elegans) (UniProt O02050).
Chain of ZC328.2 (ZC328.2) (Caenorhabditis elegans) (O02050 entry or part of it): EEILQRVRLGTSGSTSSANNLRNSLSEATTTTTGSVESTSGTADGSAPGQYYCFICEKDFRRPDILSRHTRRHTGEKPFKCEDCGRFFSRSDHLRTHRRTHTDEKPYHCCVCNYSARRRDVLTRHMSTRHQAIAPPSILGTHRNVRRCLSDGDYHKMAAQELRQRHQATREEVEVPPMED
For series [8], the target named is T7, ZK337.2 (ZK337.2) (Caenorhabditis elegans) (UniProt O46016).
T7 sequence: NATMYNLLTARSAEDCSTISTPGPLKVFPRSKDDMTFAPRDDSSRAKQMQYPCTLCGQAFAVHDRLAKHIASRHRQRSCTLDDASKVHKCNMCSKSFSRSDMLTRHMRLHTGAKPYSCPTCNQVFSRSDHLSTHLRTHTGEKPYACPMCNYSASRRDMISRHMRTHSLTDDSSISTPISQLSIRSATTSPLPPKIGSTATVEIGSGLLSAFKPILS

Series [9] has as its target egrh-1 (C27C12.2) (Caenorhabditis elegans) (UniProt Q18250).
The target in series [10] is sptf-3 (Y40B1A.4) (Caenorhabditis elegans) (UniProt Q9XW26).
Chain of sptf-3 (Y40B1A.4) (Caenorhabditis elegans) (Q9XW26 266-412): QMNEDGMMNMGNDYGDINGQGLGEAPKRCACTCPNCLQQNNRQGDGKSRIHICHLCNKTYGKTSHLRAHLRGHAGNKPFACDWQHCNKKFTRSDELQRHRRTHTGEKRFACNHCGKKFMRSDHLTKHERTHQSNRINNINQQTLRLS
For series [11], the target named is T8, nhr-66 (T09A12.4) (Caenorhabditis elegans) (UniProt H2KYJ8).
T8 sequence: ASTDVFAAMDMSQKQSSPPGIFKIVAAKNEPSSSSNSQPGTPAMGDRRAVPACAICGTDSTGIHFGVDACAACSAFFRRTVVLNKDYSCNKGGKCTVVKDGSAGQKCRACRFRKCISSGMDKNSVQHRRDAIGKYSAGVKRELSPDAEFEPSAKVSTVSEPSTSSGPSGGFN

Series [12] deals with T9, nhr-70 (Y51A2D.17) (Caenorhabditis elegans) (UniProt G5EEL3).
T9 sequence: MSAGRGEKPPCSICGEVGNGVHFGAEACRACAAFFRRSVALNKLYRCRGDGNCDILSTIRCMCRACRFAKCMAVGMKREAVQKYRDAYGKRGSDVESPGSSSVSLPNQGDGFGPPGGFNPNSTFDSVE

Series [13] deals with T10, odr-7 (T18D3.2) (Caenorhabditis elegans) (UniProt P41933).
T10 sequence: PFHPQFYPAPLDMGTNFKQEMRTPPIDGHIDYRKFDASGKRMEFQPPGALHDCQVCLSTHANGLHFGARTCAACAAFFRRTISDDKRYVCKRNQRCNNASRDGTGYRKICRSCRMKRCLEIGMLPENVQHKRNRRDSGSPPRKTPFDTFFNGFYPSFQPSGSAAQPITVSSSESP

In series [14] the target is T11, elt-7 (C18G1.2) (Caenorhabditis elegans) (UniProt O61924).
T11 sequence: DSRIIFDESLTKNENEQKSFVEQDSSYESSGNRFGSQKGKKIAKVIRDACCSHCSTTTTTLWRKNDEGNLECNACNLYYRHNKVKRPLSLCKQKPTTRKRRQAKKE

The target in series [15] is klf-3 (F54H5.4) (Caenorhabditis elegans) (UniProt Q65ZG6).
Chain of klf-3 (F54H5.4) (Caenorhabditis elegans) (Q65ZG6 180-315): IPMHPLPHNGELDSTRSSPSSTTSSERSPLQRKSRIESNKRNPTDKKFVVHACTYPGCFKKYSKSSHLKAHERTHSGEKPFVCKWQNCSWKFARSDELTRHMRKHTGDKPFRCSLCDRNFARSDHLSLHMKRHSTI

Chain of egrh-1 (C27C12.2) (Caenorhabditis elegans) (Q18250 324-461): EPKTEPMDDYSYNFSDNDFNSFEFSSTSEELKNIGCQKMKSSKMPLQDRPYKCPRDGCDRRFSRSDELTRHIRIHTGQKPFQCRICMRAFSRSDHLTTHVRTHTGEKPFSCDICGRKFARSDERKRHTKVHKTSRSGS

In [1], “GAACTGCA (double strand) [8-mer GAACTGCA]” registered a binding signal (PBM E-score (-0.5 to 0.5)) of 0.494. In [2], “AAAGTACG (double strand) [8-mer AAAGTACG]” had a binding signal (PBM E-score (-0.5 to 0.5)) of 0.462. Turning to “GCGCATCA (double strand) [8-mer GCGCATCA]”, the binding signal (PBM E-score (-0.5 to 0.5)) in series [3] was found to be 0.47. On to “TATAAACA (double strand) [8-mer TATAAACA]”, for which the binding signal (PBM E-score (-0.5 to 0.5)) in series [4] was determined as 0.483.

“GATGCGCA (double strand) [8-mer GATGCGCA]” returned a binding signal (PBM E-score (-0.5 to 0.5)) in series [3] of 0.484. “AAAGAACG (double strand) [8-mer AAAGAACG]” returned a binding signal (PBM E-score (-0.5 to 0.5)) in [2] of 0.458.

As for “AGTAAACA (double strand) [8-mer AGTAAACA]”, the binding signal (PBM E-score (-0.5 to 0.5)) in series [5] is 0.485; in series [4] it was 0.457. In series [1], “AGACTGCA (double strand) [8-mer AGACTGCA]” yielded a binding signal (PBM E-score (-0.5 to 0.5)) of 0.469. As for “GCGTATCC (double strand) [8-mer GCGTATCC]”, the binding signal (PBM E-score (-0.5 to 0.5)) in series [3] was found to be 0.454. As to “GAAGTGCA (double strand) [8-mer GAAGTGCA]”, the binding signal (PBM E-score (-0.5 to 0.5)) in [6] was 0.491; in series [3], 0.459. The sequence “AACTGCAA (double strand) [8-mer AACTGCAA]” displayed a binding signal (PBM E-score (-0.5 to 0.5)) in series [1] of 0.495. For “AAAGTACA (double strand) [8-mer AAAGTACA]”, the binding signal (PBM E-score (-0.5 to 0.5)) in series [6] was determined as 0.497; in series [2] it was 0.482. With “CCGCCCAC (double strand) [8-mer CCGCCCAC]”, the binding signal (PBM E-score (-0.5 to 0.5)) turned out to be 0.489 in [7], 0.494 in series [8], 0.494 in series [9] and 0.489 in series [10]. In [4], “ATTGTTTA (double strand) [8-mer ATTGTTTA]” came in with a binding signal (PBM E-score (-0.5 to 0.5)) of 0.467. As to “GTAAACAC (double strand) [8-mer GTAAACAC]”, the binding signal (PBM E-score (-0.5 to 0.5)) in series [4] was 0.452. Take “AGCGCATC (double strand) [8-mer AGCGCATC]”: the binding signal (PBM E-score (-0.5 to 0.5)) in [3] is 0.459.

For the sequence “GGACTGCA (double strand) [8-mer GGACTGCA]”, the binding signal (PBM E-score (-0.5 to 0.5)) in series [1] amounted to 0.476. Turning to “GACTACAA (double strand) [8-mer GACTACAA]”, the binding signal (PBM E-score (-0.5 to 0.5)) in series [11] stood at 0.488; in series [12], 0.495; in [13] it was 0.476; in series [1] it was 0.468. Sequence “GATGCGCC (double strand) [8-mer GATGCGCC]” had a binding signal (PBM E-score (-0.5 to 0.5)) in [3] of 0.464. In series [1], “GAACTACA (double strand) [8-mer GAACTACA]” came in with a binding signal (PBM E-score (-0.5 to 0.5)) of 0.459. “AGTACACT (double strand) [8-mer AGTACACT]” registered a binding signal (PBM E-score (-0.5 to 0.5)) in series [2] of 0.454. “GATGTGCA (double strand) [8-mer GATGTGCA]” registered a binding signal (PBM E-score (-0.5 to 0.5)) in series [3] of 0.457.

In [2], “GAGTACAC (double strand) [8-mer GAGTACAC]” returned a binding signal (PBM E-score (-0.5 to 0.5)) of 0.461. The same measure, in the same setting: as for “AAAGTTCA (double strand) [8-mer AAAGTTCA]”, the figure is 0.46. “GCGGATCC (double strand) [8-mer GCGGATCC]” came in with a binding signal (PBM E-score (-0.5 to 0.5)) in series [3] of 0.472. Take “GACTGCAA (double strand) [8-mer GACTGCAA]”: in series [1], the binding signal (PBM E-score (-0.5 to 0.5)) was found to be 0.491. As for “ATAAACAA (double strand) [8-mer ATAAACAA]”, the binding signal (PBM E-score (-0.5 to 0.5)) in [5] came out at 0.485; in series [4], 0.489. In [3], “GCGCATCC (double strand) [8-mer GCGCATCC]” registered a binding signal (PBM E-score (-0.5 to 0.5)) of 0.487. With “GTTTATAA (double strand) [8-mer GTTTATAA]”, in series [4], the binding signal (PBM E-score (-0.5 to 0.5)) is 0.459. Turning to “AAACTGCA (double strand) [8-mer AAACTGCA]”, the binding signal (PBM E-score (-0.5 to 0.5)) in series [1] turned out to be 0.475. With “GCCGTTCC (double strand) [8-mer GCCGTTCC]”, in series [3], the binding signal (PBM E-score (-0.5 to 0.5)) amounted to 0.469.

Consider “AGAGTACA (double strand) [8-mer AGAGTACA]”, for which the binding signal (PBM E-score (-0.5 to 0.5)) in series [2] was 0.48. “ATGTTTAC (double strand) [8-mer ATGTTTAC]” registered a binding signal (PBM E-score (-0.5 to 0.5)) in series [4] of 0.455. Sequence “ACTGCAAA (double strand) [8-mer ACTGCAAA]” came in with a binding signal (PBM E-score (-0.5 to 0.5)) in series [1] of 0.487.

As to “ACTACAAA (double strand) [8-mer ACTACAAA]”, the binding signal (PBM E-score (-0.5 to 0.5)) stood at 0.492 in [11], 0.493 in [12], 0.491 in series [13] and 0.452 in series [1].

Regarding “ATAAACAT (double strand) [8-mer ATAAACAT]”, the binding signal (PBM E-score (-0.5 to 0.5)) in [4] was 0.473. Regarding “GCACATCC (double strand) [8-mer GCACATCC]”, the binding signal (PBM E-score (-0.5 to 0.5)) in series [3] was 0.46. In the case of “AACTACAA (double strand) [8-mer AACTACAA]”, the binding signal (PBM E-score (-0.5 to 0.5)) is 0.489 in series [11], 0.487 in series [12] and 0.492 in series [1]. Turning to “AAGTACAC (double strand) [8-mer AAGTACAC]”, the binding signal (PBM E-score (-0.5 to 0.5)) came to 0.492 in series [6] and 0.457 in series [2]. On to “ATAGTACA (double strand) [8-mer ATAGTACA]”, for which the binding signal (PBM E-score (-0.5 to 0.5)) in series [2] came to 0.452.

For the sequence “ACGCCCCC (double strand) [8-mer ACGCCCCC]”, the binding signal (PBM E-score (-0.5 to 0.5)) was 0.486 in [7], 0.495 in series [8], 0.495 in series [9] and 0.49 in [10]. Take “AAGTGCAC (double strand) [8-mer AAGTGCAC]”: the values for the binding signal (PBM E-score (-0.5 to 0.5)) in [6] and in [2] were 0.498 and 0.453, respectively. The matching figures for “AGTGCACT (double strand) [8-mer AGTGCACT]”: 0.497 and 0.456. Take “TATGATAA (double strand) [8-mer TATGATAA]”: the binding signal (PBM E-score (-0.5 to 0.5)) in series [14] turned out to be 0.457. Turning to “ACGCCCAC (double strand) [8-mer ACGCCCAC]”, the binding signal (PBM E-score (-0.5 to 0.5)) was determined as 0.492 in series [8], 0.494 in series [9], 0.48 in [15] and 0.454 in [10].
